These results are taken from patent publication US20250026841A1.

The target of this assay is p95HER2 expressed on cells (p95HER2-HEK293, p95HER2-expressing NCI-H292) (human) (UniProt P04626). In words: flow cytometry on p95HER2-expressing NCI-H292 cells, ug/mL is the unit of the x axis. (Flow cytometry measures light scatter and fluorescence of single cells or particles in a stream.)

B1: anti-p95HER2 antibody clone R4-15 (antibody, human IgG1, V domains shown)
VH: QITLKESGPTLVKPTQTLTLTCTFSGFSLSSGGVGVGWIRQPPGKALEWLALIYWDDDKRYSPSLKSRLTITKDTSKKQVVLTMTNMDPVDTATYYCAHLDYPENYFDQWGQGTLVTVSS
VL: DIQMTQSPSSLSASVGDRVTFTCRASQSISTYLNWYQQKPGKAPKLLIYAASTLQSGVPSRFSGSGSGTDFTLAISSLQPEDFATYFCQQSYSFPTFGQGTRLEIKR
Turning to B1, the EC50 (commonly the midpoint of the concentration-response curve) was determined as 0.0659 µg/mL.

B2: anti-p95HER2 antibody clone R4-5 (antibody, human IgG1, kappa, V domains shown)
VH: QITLKESGPALVKPTQTLTLTCTFSGFSLSTSGVGVGWIRQPPGKALEWLALIYWDDDKRYSPSLKSRLTITKDTSKNQVVLTMTNMDPVDTATYYCAHSRLPYNSHGYWGQGTTVTVSS
VL: DIQMTQSPSSLSASVGDRVTITCQASQAIGNYLSWYQQKPGRAPKLLIYAASTLHSGVPSRFSGSGSGTDFTLTITSLQPDDFATYYCQQSYSVPVTFGLGTKLEIKR
Take B2: the EC50 came to 0.399 µg/mL.
